In this assay the target is CD81-LEL (large extracellular loop of human CD81, amino acids 113-201) (human). Description: X-ray crystal structure; dimer in the asymmetric unit.

On to “CD81-LEL (large extracellular loop of human CD81, amino acids 113-201) (receptor)”, for which the subunit interface turned out to be 986 Å^2.

The values above are taken from patent US7657385B2.
